T1: Recombinant His-Norbin (His-tagged rat Norbin protein) (rat, UniProt O35095 1-729)
T1 construct: Norbin (Neurochondrin), rat, full-length construct; 98% identical to human Norbin; also called Neurochondrin; NCDN; source: M15 [pREP4] bacteria, inclusion bodies solubilized in 6 M guanidine hydrochloride, renatured by dialysis, purified; not shown: 6xHis, C-terminal, kept
T1 sequence (looked up): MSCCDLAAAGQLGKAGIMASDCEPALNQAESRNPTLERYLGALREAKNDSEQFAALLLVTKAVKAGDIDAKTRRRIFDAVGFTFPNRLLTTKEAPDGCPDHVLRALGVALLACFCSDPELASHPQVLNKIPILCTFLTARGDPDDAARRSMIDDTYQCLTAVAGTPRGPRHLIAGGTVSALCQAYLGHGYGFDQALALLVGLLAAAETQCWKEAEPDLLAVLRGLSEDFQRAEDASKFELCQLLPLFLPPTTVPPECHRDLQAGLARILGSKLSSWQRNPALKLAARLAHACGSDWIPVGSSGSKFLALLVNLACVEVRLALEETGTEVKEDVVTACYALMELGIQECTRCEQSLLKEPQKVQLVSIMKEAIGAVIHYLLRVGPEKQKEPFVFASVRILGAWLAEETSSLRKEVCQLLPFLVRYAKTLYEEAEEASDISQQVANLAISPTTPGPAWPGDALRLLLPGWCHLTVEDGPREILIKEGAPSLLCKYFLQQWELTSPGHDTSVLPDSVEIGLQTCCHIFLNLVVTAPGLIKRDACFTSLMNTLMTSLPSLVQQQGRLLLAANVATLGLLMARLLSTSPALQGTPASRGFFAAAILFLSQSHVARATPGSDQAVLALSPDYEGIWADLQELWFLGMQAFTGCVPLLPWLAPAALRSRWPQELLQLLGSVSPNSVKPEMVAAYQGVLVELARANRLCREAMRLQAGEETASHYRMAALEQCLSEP


molecular target: T1, Recombinant His-Norbin (His-tagged rat …); assay: pull-down; GST-tagged GPCR C-terminal tails (or GST) from bacterial lysates bound to glutathione Sepharose, washed twice in PBS, 2% Triton X-100, 5 mM DTT, incubated with 50 μg purified recombinant His-Norbin for 3 h at 4 °C, washed 3 x in PBS, 1% Triton X-100; western blot with His antibody; settings: both partners purified

| Binder | binding result |
| --- | --- |
| GST-tagged C-terminal tail of human C5aR1 (domain or fragment, In pGEX4T3, cloned with BamH1 and Xho1; also called GST-C5aR1) INCCINPIIYVVAGQGFQGRLRKSLPSLLRNVLTEESVVRESKSFTRSTVDTMAQKTQAV | binds |
| GST-tagged C-terminal tail of human CXCR4 (domain or fragment, In pGEX6P1, cloned with BamH1 and Xho1; also called GST-CXCR4) FHCCLNPILYAFLGAKFKTSAQHALTSVSRGSSLKILSKGKRGGHSSVSTESESSSFHSS | binds |
| GST-tagged C-terminal tail of MCH1 (melanin-concentrating hormone receptor 1) (domain or fragment, In pGEX4T3; Positive control; also called GST-MCH1) ANSCLNPFVYIVLCETFRKRLVLSVKPAAQGQLRAVSNAQTADEERTESKGT | binds |

From article PMC11647504, “The GPCR adaptor protein Norbin controls the trafficking of C5aR1 and CXCR4 in mouse neutrophils” (The Journal of Biological Chemistry, 2024)
